According to patent US20240035010, “COMPOSITIONS COMPRISING A VARIANT POLYPEPTIDE AND USES THEREOF” (Arbor Biotechnologies, Inc., published 2024):

Experiments:
Test in all cases: cell_activity; PAM 5'-ATTG-3'
Details in all cases: tags: pcDNA3.1 expression
[1] = molecular target: T1, variant nuclease D590G combination (P14R, D32R, I61R, E311R, D590G)
T1 chain: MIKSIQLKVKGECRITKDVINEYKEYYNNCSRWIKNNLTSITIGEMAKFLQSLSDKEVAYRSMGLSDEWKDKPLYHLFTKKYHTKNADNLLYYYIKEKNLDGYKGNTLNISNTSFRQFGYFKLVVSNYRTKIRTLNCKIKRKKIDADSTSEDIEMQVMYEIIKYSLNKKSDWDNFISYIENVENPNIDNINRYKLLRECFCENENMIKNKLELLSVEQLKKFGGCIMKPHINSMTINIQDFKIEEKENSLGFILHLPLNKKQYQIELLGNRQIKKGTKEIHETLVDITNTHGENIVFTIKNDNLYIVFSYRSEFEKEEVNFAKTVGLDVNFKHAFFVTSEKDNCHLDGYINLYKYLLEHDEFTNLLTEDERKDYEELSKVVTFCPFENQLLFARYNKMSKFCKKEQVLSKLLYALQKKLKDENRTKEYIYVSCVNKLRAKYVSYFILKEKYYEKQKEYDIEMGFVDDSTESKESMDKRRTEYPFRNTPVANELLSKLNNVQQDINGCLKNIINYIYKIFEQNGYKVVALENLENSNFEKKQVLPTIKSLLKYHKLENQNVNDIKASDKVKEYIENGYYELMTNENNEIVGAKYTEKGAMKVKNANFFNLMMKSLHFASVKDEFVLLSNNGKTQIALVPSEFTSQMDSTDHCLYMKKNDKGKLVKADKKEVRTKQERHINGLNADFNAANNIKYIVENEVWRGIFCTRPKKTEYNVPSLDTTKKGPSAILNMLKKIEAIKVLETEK

[2] = molecular target: T2, variant nuclease 7 substitutions D590G/E154G/E736G (P14R, D32R, I61R, E311R, D590G, E154G, E736G)
T2 chain: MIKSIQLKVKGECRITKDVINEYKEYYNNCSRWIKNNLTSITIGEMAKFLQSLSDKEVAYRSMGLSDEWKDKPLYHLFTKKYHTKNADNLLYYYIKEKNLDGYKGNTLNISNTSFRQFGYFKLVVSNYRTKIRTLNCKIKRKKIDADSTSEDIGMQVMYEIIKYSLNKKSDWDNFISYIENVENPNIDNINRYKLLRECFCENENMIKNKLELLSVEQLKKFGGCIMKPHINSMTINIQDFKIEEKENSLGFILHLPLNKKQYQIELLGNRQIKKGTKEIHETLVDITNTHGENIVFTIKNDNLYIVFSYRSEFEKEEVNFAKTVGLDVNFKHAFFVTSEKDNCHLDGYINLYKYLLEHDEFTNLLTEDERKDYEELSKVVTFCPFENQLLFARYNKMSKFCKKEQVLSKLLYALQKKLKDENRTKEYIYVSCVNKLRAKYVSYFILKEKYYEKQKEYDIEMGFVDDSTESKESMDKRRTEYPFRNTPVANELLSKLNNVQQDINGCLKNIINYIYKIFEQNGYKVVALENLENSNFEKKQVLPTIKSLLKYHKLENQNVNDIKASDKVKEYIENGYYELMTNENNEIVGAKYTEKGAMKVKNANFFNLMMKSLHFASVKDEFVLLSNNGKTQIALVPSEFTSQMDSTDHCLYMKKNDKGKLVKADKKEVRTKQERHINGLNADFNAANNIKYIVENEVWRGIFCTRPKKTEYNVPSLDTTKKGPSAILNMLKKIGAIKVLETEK

[3] = molecular target: T3, variant nuclease D55G/E736G combination (P14R, D32R, I61R, E311R, D55G, E736G)
T3 chain: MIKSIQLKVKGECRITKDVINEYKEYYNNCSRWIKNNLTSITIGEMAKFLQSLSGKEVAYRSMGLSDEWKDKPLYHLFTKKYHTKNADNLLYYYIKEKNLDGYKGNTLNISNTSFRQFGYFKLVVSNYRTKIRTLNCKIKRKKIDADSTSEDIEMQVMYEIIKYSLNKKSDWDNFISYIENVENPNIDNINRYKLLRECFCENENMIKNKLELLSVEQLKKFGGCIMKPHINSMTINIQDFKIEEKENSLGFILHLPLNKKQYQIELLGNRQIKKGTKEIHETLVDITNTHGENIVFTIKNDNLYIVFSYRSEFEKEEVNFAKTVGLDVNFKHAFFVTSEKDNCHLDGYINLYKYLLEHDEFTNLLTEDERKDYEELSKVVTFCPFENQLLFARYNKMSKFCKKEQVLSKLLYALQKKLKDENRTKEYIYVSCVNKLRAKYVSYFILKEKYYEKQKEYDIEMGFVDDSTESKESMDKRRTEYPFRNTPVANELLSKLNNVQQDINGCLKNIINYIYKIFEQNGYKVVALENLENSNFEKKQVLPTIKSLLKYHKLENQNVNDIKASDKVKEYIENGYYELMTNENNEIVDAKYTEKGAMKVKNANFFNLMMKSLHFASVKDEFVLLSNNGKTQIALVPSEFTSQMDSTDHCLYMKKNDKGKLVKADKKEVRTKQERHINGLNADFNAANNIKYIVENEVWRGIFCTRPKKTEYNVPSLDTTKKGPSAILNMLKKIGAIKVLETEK

B1: EMX1 crRNA ; EMX1 target (ssRNA ; dsDNA)
RNA: CUUGUUGUAUAUGUCCUUUUAUAGGUAUUAAACAACCCGCCGCUUCCUGAGCCAUC
DNA 1: CCGCCGCTTCCTGAGCCATC
DNA 2: GATGGCTCAGGAAGCGGCGG
indel editing activity [1]: 7.43 fold of WT
indel editing activity [2]: 10.7 fold of WT
indel editing activity [3]: 10.5 fold of WT
